The values that follow come from US20250115671A1 (BEIGENE, published 2025).

The target of experiment [1] is T1, human CCR8 (human, UniProt P51685 1-355). In words: flow cytometry, Jurkat-human CCR8 cells. As for the experimental part:
To evaluate the binding activity of anti-CCR8 antibodies to bind CCR8 expressed on living cells, Jurkat cells were engineered to over-express human CCR8. Jurkat-human CCR8 cells were seeded in 96-well plate and incubated with a series of dilutions of anti-CCR8 antibodies. Goat anti-human IgG was used as secondary antibody to detect antibody binding to the cell surface. EC50 values for dose-dependent binding to human CCR8 were determined by fitting the dose-response data to the four-parameter logistic model with GraphPad Prism. As shown in Table 4 and FIG. 3 the CCR8 antibodies had high binding affinity to human CCR8.

The target in experiment [2] is T1, human CCR8. In words: flow cytometry, stimulated human primary Treg cells (high CCR8). On the procedure: Treg binding of the humanized antibodies was measured on Treg cells from human PBMC. Briefly, CD25+ cells were isolated from human PBMC. The cells were stimulated with IL-2, TGFβ and anti-CD3/CD28 beads for high CCR8-expression level Treg cells. Next, Treg cells were seeded in 96-well plate and incubated with a series of dilutions of anti-CCR8 antibodies. Goat anti-human IgG was used as secondary antibody to detect antibody binding to the cell surface. EC50 values for dose-dependent binding to human CCR8 were determined by fitting the dose-response data to the four-parameter logistic model with GraphPad Prism. As shown in FIG. 6A and Table 12 the hu305-5W-3a had the highest binding affinity to CCR8 on Treg cells of the humanized antibodies. As noted in Table 12 and FIG. 6A below, the hu305-5W-3a antibody also had the lowest IC50 regarding reducing ligand-receptor interaction.
Background: Flow cytometry measures light scatter and fluorescence of single cells or particles in a stream.

Experiment [3] addresses T2, huCCR8 D26A (human, UniProt P51685 1-355).
T2 construct: Point mutant on transfected Expi293 cells
In words: flow cytometry, transfected Expi293 cells, antibody at 50, 10 and 1 nM. On the procedure:
(§1) To more precisely determine the specific amino acid residues that are crucial for antibody binding to human CCR8, point mutations were introduced to ECL2, ECL3 and N-terminal regions of human CCR8, as shown in the first column of Table 19. To evaluate the impact of each mutant, humanized anti-CCR8 antibody hu305-5W-3a was used to react with transfected Expi293 cells as described above with the concentration of 50 nM, 10 nM and 1 nM (results summarized in Table 19). The critical amino acids for hu305-5W-3a binding are marked with an “X” indicating a loss of >50% compared with wild type huCCR8, which is considered significant.

In experiment [4] the target is T3, huCCR8 Y172A (human, UniProt P51685 1-355).
T3 construct: Point mutant on transfected Expi293 cells
Described as above. On the procedure: as §1

Experiment [5] deals with T4, huCCR8 E177A (human, UniProt P51685 1-355).
T4 construct: Point mutant on transfected Expi293 cells
Described as above. As for the experimental part:
as §1

The target of experiment [6] is T5, huCCR8 D178A (human, UniProt P51685 1-355).
T5 construct: Point mutant on transfected Expi293 cells
The description is as above. On the procedure:
as §1

In experiment [7] the target is T6, huCCR8 M266A (human, UniProt P51685 1-355).
T6 construct: Point mutant on transfected Expi293 cells
The description is as above. As for the experimental part:
as §1

For experiment [8], the target named is T7, huCCR8 L269A (human, UniProt P51685 1-355).
T7 construct: Point mutant on transfected Expi293 cells
Described as above. As for the experimental part: as §1

Experiment [9] concerns the target T1, human CCR8. In words: flow cytometry, transfected Expi293 cells, serial dilution from 200 nM. On the procedure:
(§2) In comparison, the 10A11 reference antibody recognizes D14, Y17, D19 on the N-terminal domain of huCCR8 as the mutation on these sites totally abolished the binding, indicating no overlap in epitope between the reference antibody 10A11 and hu305-5W-3a. To further confirm the critical roles of these sites for binding, the transfected Expi293 cells were stained with a serial dilution of hu305-5W-3a from 200 nM followed by detection with Alexa Fluor 647 Rabbit Anti-Human IgG (Cat.: 309-605-008 Jackson ImmunoResearch) to obtain a full binding curve. […] D178 and M266 are considered as 2nd tier epitopes having media impact on Hu305-5W-3a binding. Substitution them with Ala will lead to ˜3 folds decrease of EC50.

In experiment [10] the target is T2, huCCR8 D26A. The description is as above. On the procedure:
as §2

Experiment [11] deals with T3, huCCR8 Y172A. Described as above. As for the experimental part:
as §2

For experiment [12], the target named is T4, huCCR8 E177A. The description is as above. On the procedure:
as §2

For experiment [13], the target named is T5, huCCR8 D178A. Described as above. On the procedure:
as §2

Experiment [14] deals with T6, huCCR8 M266A. Described as above. As for the experimental part:
as §2

In experiment [15] the target is T7, huCCR8 L269A. The description is as above. On the procedure:
as §2

Experiment [16] deals with human CCR8 N-terminal domain-mouse Fc tag fusion protein (human (CCR8 part), mouse IgG2a Fc). In words: ELISA, plate coated with human CCR8 N-terminal domain-Fc fusion. On the technique in general: An ELISA detects its analyte on a solid surface through an enzyme-linked reagent.
The target in experiment [17] is T1, human CCR8. In words: FACS binning, Jurkat-huCCR8, 200 nM each; row = unlabeled 1st Ab; competitor (APC labeled 2nd Ab): 433H.
The target of experiment [18] is T1, human CCR8. In words: FACS binning, Jurkat-huCCR8, 200 nM each; row = unlabeled 1st Ab; competitor (APC labeled 2nd Ab): 4A19.
Experiment [19] has as its target T1, human CCR8. In words: FACS binning, Jurkat-huCCR8, 200 nM each; row = unlabeled 1st Ab; competitor (APC labeled 2nd Ab): Ch127.
Experiment [20] addresses T1, human CCR8. In words: FACS binning, Jurkat-huCCR8, 200 nM each; row = unlabeled 1st Ab; competitor (APC labeled 2nd Ab): Ch211.
Experiment [21] deals with T1, human CCR8. In words: FACS binning, Jurkat-huCCR8, 200 nM each; row = unlabeled 1st Ab; competitor (APC labeled 2nd Ab): Ch305.
Experiment [22] concerns the target T1, human CCR8. In words: FACS binning, Jurkat-huCCR8, 200 nM each; row = unlabeled 1st Ab; competitor (APC labeled 2nd Ab): Ch326.
Experiment [23] has as its target T1, human CCR8. In words: FACS binning, Jurkat-huCCR8, 200 nM each; row = unlabeled 1st Ab; competitor (APC labeled 2nd Ab): Ch366-2.
Experiment [24] concerns the target T8, human CCR8 N-terminal domain-mouse Fc tag fusion protein (human (CCR8 part), mouse IgG2a Fc).
T8 construct: also called huCCR8-N-mIgG2a; human CCR8 N-terminal protein
T8 chain: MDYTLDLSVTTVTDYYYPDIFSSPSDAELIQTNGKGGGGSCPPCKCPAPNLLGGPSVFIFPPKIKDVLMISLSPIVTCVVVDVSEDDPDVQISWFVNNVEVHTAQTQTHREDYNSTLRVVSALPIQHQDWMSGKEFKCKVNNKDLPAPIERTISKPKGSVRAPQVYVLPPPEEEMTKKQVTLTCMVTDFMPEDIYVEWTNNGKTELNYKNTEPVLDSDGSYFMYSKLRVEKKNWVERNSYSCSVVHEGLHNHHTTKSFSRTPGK
In words: ELISA, plate coated with human CCR8 N-terminal domain-Fc fusion. On the procedure: To determine whether anti-CCR8 antibodies bind to the N-terminal domain of human CCR8, ELISA plates were coated with human CCR8 N-terminal domain-mouse Fc tag fusion protein (SEQ ID NO: 28 and 29) overnight at 4° C. After washing and blocking, serially diluted anti-CCR8 antibodies were added to plates and incubated for 1 hour at room temperature. After washing, diluted HRP goat anti-human IgG Fc or HRP goat anti-mouse kappa chain (for 433H) secondary antibodies were added to plates and incubated for 45 minutes at room temperature. After washing, TMB substrate was added to plates for developing and then stopped by adding TMB substrate stop solution. The absorbance was read at 450 nm using a plate reader. […] It is a non CCR8 N-terminal loop binder.

Where two headings read alike, the source gives them in different places. Where only a bound is given, the exact number is not on record here.

As usually defined, the EC50 is the midpoint of the concentration-response curve.

T1 sequence (P51685 whole entry): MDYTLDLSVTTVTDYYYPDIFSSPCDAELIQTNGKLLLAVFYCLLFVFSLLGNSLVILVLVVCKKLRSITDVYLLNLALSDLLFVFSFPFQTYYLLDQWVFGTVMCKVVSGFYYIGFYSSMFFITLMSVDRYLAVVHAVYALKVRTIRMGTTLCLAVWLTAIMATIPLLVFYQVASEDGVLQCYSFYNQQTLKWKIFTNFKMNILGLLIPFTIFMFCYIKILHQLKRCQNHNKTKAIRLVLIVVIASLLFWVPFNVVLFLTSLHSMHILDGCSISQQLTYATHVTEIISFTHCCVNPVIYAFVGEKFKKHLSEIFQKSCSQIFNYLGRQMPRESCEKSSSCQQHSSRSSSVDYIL

As for hIgG (antibody), the figures for the Emax in experiment [1] and in experiment [2] were 204 RFU and 60 RLU, respectively.

B1: hu305-5W-3a (antibody, V domains shown)
VH: QVQLKQSGPGLVKPSETLSLTCTVSGFSLAVYGVHWVRQPPGKGLEWLGVIWRGGTTDYNPSLKSRLTFSKDSSKSQVSLKLSSVTAADTAVYYCAKNRVTTVVAPNFYAMDYWGQGTLVTVSS
VL: DIVMTQSPDSLAVSLGERATINCKSSQSLLYSGNQKNYLAWYQQKPGQPPKLLIYWASTRKSGVPDRFSGSGSGTDFTLTISSLKAEDVAVYYCQQYYTYPLTFGQGTRLEIK
For B1, the “loss of binding compared with wild type huCCR8” value in experiment [3], in experiment [4], in experiment [5], in [6], in experiment [7] and in [8] was above 50% each time. Further, the EC50 in experiment [9] came to 6.3 nM; in [10], 16.8 nM; in [11], 26.3 nM; in experiment [12], 25.4 nM; in [13], 18.3 nM; in experiment [14], 19.4 nM. A half-maximal effect in experiment [15] (EC50) was put at 27.4 nM. The “fold change of EC50 against wild type huCCR8” value in experiment [10] is above 2 fold; in experiment [11], above 4 fold; in experiment [12] it was above 4 fold; in [13], around 3 fold; in experiment [14] it was around 3 fold; in experiment [15], above 4 fold.

B2: 433H (antibody, from another filing, V domains shown)
VH: EVQLVETGGGLVQPKGSLRLSCAASGFPFNTFAMNWVRQAPGKGLEWLARIRSKSNNYATYYADSVKDRFTISRDDSRRMLYLLMNNVKFEDTAIYYCVRGKENNYGYAMDYWGQGTSVTVSS
VL: DIVMTQAAPSVPVTPGESVSISCRSSQSLLHSNGNTYLYWFLQRPGQSPQLLIYRMSNLASGVPDRFSGSGSGTAFTLRISRVEAEDVGVYYCMQHLEYPFTFGIGTKLELKR
The molecule B2 returned a half-maximal effective concentration (EC50) in [16] of 0.94 nM. Further, the % of the maximum binding of the APC labeled antibody in experiment [17] came out at 3.03%; in experiment [18], 8.43%; in experiment [19], 2.55%; in experiment [20] it was 39.9%; in experiment [21] it was 28.9%; in experiment [22] it was 1.87%. Besides, the % of the maximum binding of the APC labeled antibody in [23] worked out at 14.2%.

B3: 4A19 (antibody, V domains shown)
VH: QVQLVQSGAEVKKPGASVKVSCKASGYTFTDSEMHWVRQATGQGLEWMGAIQPETGGTAYNQKFKARVTMTRDTSISTAYMELSSLRSEDTAVYYCARRRRNFDYWGQGTLVTVSS
VL: DIVMTQTPLSLSVTPGQPASISCRSSQSLFHSSGNTYLHWYLQKPGQPPQLLIYKVSNRFSGVPDRFSGSGSGTDFTLKISRVEAEDVGVYYCSQSTHVPFTFGQGTKLEIKR
B3 displayed an EC50 in [24] of 0.11 nM.
